Experimental data published in patent US20200199244A1.

How the values were obtained:
[1] = molecular target: biotinylated human CD40 (human) (UniProt P25942); test: SPR, BIAcore 3000, Fab injected alone over biotinylated human CD40 on SA chip
[2] = molecular target: biotinylated human CD40 (human) (UniProt P25942); test: SPR, BIAcore 3000 COINJECT over biotinylated human CD40; mixture after first injection; competitor G28-5 Fab
[3] = molecular target: biotinylated human CD40 (human) (UniProt P25942); test: SPR, BIAcore 3000 COINJECT over biotinylated human CD40; mixture after first injection; competitor BMS3h-56-5
[4] = molecular target: biotinylated human CD40 (human) (UniProt P25942); test: SPR, BIAcore 3000 COINJECT over biotinylated human CD40; mixture after first injection; competitor BMS3h-193-12
[5] = molecular target: biotinylated human CD40 (human) (UniProt P25942); test: SPR, BIAcore 3000, 1 µM Fab alone over biotinylated human CD40
[6] = molecular target: biotinylated human CD40 (human) (UniProt P25942); test: SPR, BIAcore 3000 COINJECT over biotinylated human CD40; mixture after first injection; competitor Chi220 Fab

Chain of biotinylated human CD40 (human) (P25942 21-193 limits assumed): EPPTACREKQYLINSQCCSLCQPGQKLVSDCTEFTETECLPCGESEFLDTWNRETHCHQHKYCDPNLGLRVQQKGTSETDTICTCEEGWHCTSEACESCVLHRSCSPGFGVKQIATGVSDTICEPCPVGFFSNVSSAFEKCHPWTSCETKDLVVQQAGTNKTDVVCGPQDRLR

Chi220 Fab'
RU first dAb/Fab alone [1]: 1090 RU | Second Injection (% of single dAb/Fab RU) [2]: 39% | Second Injection (% of single dAb/Fab RU) [3]: 98% | Second Injection (% of single dAb/Fab RU) [4]: 98%

G28-5 Fab'
Single dAb RU [5]: 730 RU | RU first dAb/Fab alone [1]: 730 RU | Second Injection (% of single dAb/Fab RU) [3]: 94% | Second Injection (% of single dAb/Fab RU) [6]: 11% | Second Injection (% of single dAb/Fab RU) [4]: 93%
